Source: PMC9352680, “A comprehensive thermodynamic model for RNA binding by the Saccharomyces cerevisiae Pumilio protein PUF4”

T1: PUF4 RNA-binding domain (Saccharomyces cerevisiae, UniProt P25339 537-888)
T1 sequence: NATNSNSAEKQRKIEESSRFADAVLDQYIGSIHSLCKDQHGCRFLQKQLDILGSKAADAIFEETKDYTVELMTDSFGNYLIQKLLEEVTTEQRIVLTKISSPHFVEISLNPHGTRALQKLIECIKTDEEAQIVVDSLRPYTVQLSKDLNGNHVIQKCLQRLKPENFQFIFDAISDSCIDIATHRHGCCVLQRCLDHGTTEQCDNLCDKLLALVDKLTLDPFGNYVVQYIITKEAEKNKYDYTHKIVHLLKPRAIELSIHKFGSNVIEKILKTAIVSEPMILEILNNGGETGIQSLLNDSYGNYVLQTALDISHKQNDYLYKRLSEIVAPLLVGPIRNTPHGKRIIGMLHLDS


These binders were tested against T1, PUF4 RNA-binding domain (assay: Mg; RNA-MaP; 20 mM Na-HEPES pH 7.4, 30 mM KOAc, 0.75 mM MgCl2, 0.1% Tween-20, 5% glycerol, 0.1 mg/mL BSA, 2 mM DTT; 25 C; 0.0125-409.6 nM protein). Conditions: tags: N-His6-TEV cleaved; C-SNAP kept, Cy3B-labelled; label: tethered on chip by stalled RNA polymerase.

UCUCUUUAUGUAUAUUAUGUCUCUU (ssRNA) [Id_ii_S1_P4E.2_K4.1_C4.2_[C-2T]_[T-1A]_H4.1_A4.1_F4.1_T4.2_[G10T]_[T11G]] and UCUCUUUGUAUACUAUCUCUU (ssRNA) [Ic_S1_P4E.1_K4.1_C4.1_H4.1_A4.1_[T7C]_F4.1_T4.1] are within 1.5-fold of each other in Kd: 0.98 nM for the first, 0.741 nM for the second.

Compared with UCUCUUUGCAAAUUAUCUCUU (ssRNA) [Ib_S1_P4E.1_K4.1_C4.1_H4.1_[T3C]_A4.1_[T5A]_F4.1_T4.1], UCUCUUCUACACUAUAGCUCUCUU (ssRNA) [Id_ii_S1_P3E.4_K3.3_C3.2_H3.3_A3.1_F3.1_T3.2_[T9G]_[A10C]] is higher in Kd: 926 nM for the first, > 2300 nM for the second.

Going from UCUCUUUAUGUAUAUUAUCUCUCUU (ssRNA) [Id_ii_S1_P4E.2_K4.1_C4.2_[C-2T]_[T-1A]_H4.1_A4.1_F4.1_T4.2_[G10T]_[T11C]] to UCUCUUUCUGUAUAUUAUUUCUCUU (ssRNA) [Id_ii_S1_P4E.2_K4.1_C4.2_[C-2T]_[T-1C]_H4.1_A4.1_F4.1_T4.2_[G10T]], the Kd falls from 0.896 nM to 0.502 nM (1.8-fold). The second binds more tightly here.

Going from UCUCUUCUACACUAUAGUUCUCUU (ssRNA) [Id_ii_S1_P3E.4_K3.3_C3.2_H3.3_A3.1_F3.1_T3.2_[T9G]_[A10T]] to UCUCUUUCUGUAUAUUAGUUCUCUU (ssRNA) [Id_ii_S1_P4E.2_K4.1_C4.2_[C-2T]_[T-1C]_H4.1_A4.1_F4.1_T4.2], the Kd falls from > 2300 nM to 0.308 nM.

Going from UCUCUUUAUGUAUAUUAAAUCUCUU (ssRNA) [Id_ii_S1_P4E.2_K4.1_C4.2_[C-2T]_[T-1A]_H4.1_A4.1_F4.1_T4.2_[G10A]_[T11A]] to UCUCUUCUACACUAUAUGUCUCUU (ssRNA) [Id_ii_S1_P3E.4_K3.3_C3.2_H3.3_A3.1_F3.1_T3.2_[A10G]], the Kd rises from 1.94 nM to 1320 nM (680-fold).

Compared with UCUCUUGCUGUAUAUUAAUUCUCUU (ssRNA) [Id_ii_S1_P4E.2_K4.1_C4.2_[C-2G]_[T-1C]_H4.1_A4.1_F4.1_T4.2_[G10A]], UCUCUUCUACACUAUAUAUCUCUU (ssRNA) [If_S1_P3E.4_K3.3_C3.2_H3.3_A3.1_F3.1_T3.2] is 370-fold higher in Kd: 2.69 nM for the first, 1000 nM for the second. The first binds more tightly here.

UCUCUUUGUGUAUAUUAUCUCUCUU (ssRNA) [Id_ii_S1_P4E.2_K4.1_C4.2_[C-2T]_[T-1G]_H4.1_A4.1_F4.1_T4.2_[G10T]_[T11C]] and UCUCUUUAUGUAUAUUAAUUCUCUU (ssRNA) [Id_ii_S1_P4E.2_K4.1_C4.2_[C-2T]_[T-1A]_H4.1_A4.1_F4.1_T4.2_[G10A]] are within 1.5-fold of each other in Kd: 1.06 nM for the first, 1.17 nM for the second.

UCUCUUUAUGUAUAUUAUUUCUCUU (ssRNA) [Id_ii_S1_P4E.2_K4.1_C4.2_[C-2T]_[T-1A]_H4.1_A4.1_F4.1_T4.2_[G10T]] and UCUCUUGUUGUAUAUUAAUUCUCUU (ssRNA) [Id_ii_S1_P4E.2_K4.1_C4.2_[C-2G]_H4.1_A4.1_F4.1_T4.2_[G10A]] are within 1.5-fold of each other in Kd: 1.07 nM for the first, 1.25 nM for the second.

UCUCUUUCUGUAUAUUAAAUCUCUU (ssRNA) [Id_ii_S1_P4E.2_K4.1_C4.2_[C-2T]_[T-1C]_H4.1_A4.1_F4.1_T4.2_[G10A]_[T11A]] and UCUCUUGCUGUAUAUUAUCUCUCUU (ssRNA) [Id_ii_S1_P4E.2_K4.1_C4.2_[C-2G]_[T-1C]_H4.1_A4.1_F4.1_T4.2_[G10T]_[T11C]] are within 1.5-fold of each other in Kd: 1.06 nM for the first, 1.14 nM for the second.

Going from UCUCUUUUUGUAUAUUACUUCUCUU (ssRNA) [Id_ii_S1_P4E.2_K4.1_C4.2_[C-2T]_H4.1_A4.1_F4.1_T4.2_[G10C]] to UCUCUUGCUGUAUAUUAACUCUCUU (ssRNA) [Id_ii_S1_P4E.2_K4.1_C4.2_[C-2G]_[T-1C]_H4.1_A4.1_F4.1_T4.2_[G10A]_[T11C]], the Kd rises from 0.909 nM to 1.52 nM (1.7-fold).

UCUCUUUCUGUAUAUUAACUCUCUU (ssRNA) [Id_ii_S1_P4E.2_K4.1_C4.2_[C-2T]_[T-1C]_H4.1_A4.1_F4.1_T4.2_[G10A]_[T11C]] and UCUCUUGUUGUAUAUUAUCUCUCUU (ssRNA) [Id_ii_S1_P4E.2_K4.1_C4.2_[C-2G]_H4.1_A4.1_F4.1_T4.2_[G10T]_[T11C]] are within 1.5-fold of each other in Kd: 0.887 nM for the first, 0.891 nM for the second.

Going from UCUCUUGCUGUAUAUUAUUUCUCUU (ssRNA) [Id_ii_S1_P4E.2_K4.1_C4.2_[C-2G]_[T-1C]_H4.1_A4.1_F4.1_T4.2_[G10T]] to UCUCUUCCACACUAUAAAUCUCUU (ssRNA) [Id_ii_S1_P3E.4_K3.3_C3.2_[T-1C]_H3.3_A3.1_F3.1_T3.2_[T9A]], the Kd rises from 1.28 nM to > 2300 nM.

Going from UCUCUUUCUGUAUAUUACCUCUCUU (ssRNA) [Id_ii_S1_P4E.2_K4.1_C4.2_[C-2T]_[T-1C]_H4.1_A4.1_F4.1_T4.2_[G10C]_[T11C]] to UCUCUUUAUGUAUAUUAGCUCUCUU (ssRNA) [Id_ii_S1_P4E.2_K4.1_C4.2_[C-2T]_[T-1A]_H4.1_A4.1_F4.1_T4.2_[T11C]], the Kd falls from 0.848 nM to 0.465 nM (1.8-fold).

Compared with UCUCUUUAUGUAUAUUACUUCUCUU (ssRNA) [Id_ii_S1_P4E.2_K4.1_C4.2_[C-2T]_[T-1A]_H4.1_A4.1_F4.1_T4.2_[G10C]], UCUCUUGUUGUAUAUUAAAUCUCUU (ssRNA) [Id_ii_S1_P4E.2_K4.1_C4.2_[C-2G]_H4.1_A4.1_F4.1_T4.2_[G10A]_[T11A]] is 1.7-fold higher in Kd: 1.03 nM for the first, 1.78 nM for the second.

Compared with UCUCUUGUUGUAUAUUAUUUCUCUU (ssRNA) [Id_ii_S1_P4E.2_K4.1_C4.2_[C-2G]_H4.1_A4.1_F4.1_T4.2_[G10T]], UCUCUUCAACACUAUAGAUCUCUU (ssRNA) [Id_ii_S1_P3E.4_K3.3_C3.2_[T-1A]_H3.3_A3.1_F3.1_T3.2_[T9G]] is higher in Kd: 0.762 nM for the first, > 2300 nM for the second.

With UCUCUUCAACACUAUAUCUCUCUU (ssRNA) [Id_ii_S1_P3E.4_K3.3_C3.2_[T-1A]_H3.3_A3.1_F3.1_T3.2_[A10C]] the Kd was > 2300 nM.
